The supplement of paper PMC11246515
± gives the standard deviation of the averaged measurements.

Assay: total protein half-life in vivo (active degradation + dilution); higher = more stable protein
[1] = E. coli NCM3722 delta-clpP delta-lon delta-hslV, growth: N-lim chemostat, doubling time 6 h
[2] = E. coli NCM3722 delta-clpP, growth: N-lim chemostat, doubling time 6 h
[3] = E. coli NCM3722 delta-hslV, growth: N-lim chemostat, doubling time 6 h
[4] = E. coli NCM3722 delta-lon, growth: N-lim chemostat, doubling time 6 h
[5] = E. coli NCM3722 delta-smpB, growth: N-lim chemostat, doubling time 6 h
[6] = wild type E. coli NCM3722, growth: C-lim chemostat, doubling time 3 h
[7] = wild type E. coli NCM3722, growth: C-lim chemostat, doubling time 6 h
[8] = wild type E. coli NCM3722, growth: C-lim chemostat, doubling time 12 h
[9] = wild type E. coli NCM3722, growth: N-lim chemostat, doubling time 6 h
[10] = wild type E. coli NCM3722, growth: N-lim chemostat, doubling time 12 h
[11] = wild type E. coli NCM3722, growth: P-lim chemostat, doubling time 6 h
[12] = wild type E. coli NCM3722, growth: P-lim chemostat, doubling time 12 h

Sequence | total protein half-life in vivo [1] | total protein half-life in vivo [2] | total protein half-life in vivo [3] | total protein half-life in vivo [4] | total protein half-life in vivo [5] | total protein half-life in vivo [6] | total protein half-life in vivo [7] | total protein half-life in vivo [8] | total protein half-life in vivo [9] | total protein half-life in vivo [10] | total protein half-life in vivo [11] | total protein half-life in vivo [12]
MGKALVIVESPAKAKTINKYLGSDYVVKSSVGHIRDLPTSGSAAKKSADSTSTKTAKKPKKDERGALVNRMGVDPWHNWEAHYEVLPGKEKVVSELKQLAEKADHIYLATDLDREGEAIAWHLREVIGGDDARYSRVVFNEITKNAIRQAFNKPGELNIDRVNAQQARRFMDRVVGYMVSPLLWKKIARGLSAGRVQSVAVRLVVEREREIKAFVPEEFWEVDASTTTPSGEALALQVTHQNDKPFRPVNKEQTQAAVSLLEKARYSVLEREDKPTTSKPGAPFITSTLQQAASTRLGFGVKKTMMMAQRLYEAGYITYMRTDSTNLSQDAVNMVRGYISDNFGKKYLPESPNQYASKENSQEAHEAIRPSDVNVMAESLKDMEADAQKLYQLIWRQFVACQMTPAKYDSTTLTVGAGDFRLKARGRILRFDGWTKVMPALRKGDEDRILPAVNKGDALTLVELTPAQHFTKPPARFSEASLVKELEKRGIGRPSTYASIISTIQDRGYVRVENRRFYAEKMGEIVTDRLEENFRELMNYDFTAQMENSLDQVANHEAEWKAVLDHFFSDFTQQLDKAEKDPEEGGMRPNQMVLTSIDCPTCGRKMGIRTASTGVFLGCSGYALPPKERCKTTINLVPENEVLNVLEGEDAETNALRAKRRCPKCGTAMDSYLIDPKRKLHVCGNNPTCDGYEIEEGEFRIKGYDGPIVECEKCGSEMHLKMGRFGKYMACTNEECKNTRKILRNGEVAPPKEDPVPLPELPCEKSDAYFVLRDGAAGVFLAANTFPKSRETRAPLVEELYRFRDRLPEKLRYLADAPQQDPEGNKTMVRFSRKTKQQYVSSEKDGKATGWSAFYVDGKWVEGKK | 6.56 ± 0.22 h | 6.56 ± 0.69 h | 5.9165 ± 0.0035 h | 6.34 ± 0.074 h | 5.43 ± 0.18 h | 2.57 ± 0.091 h | 5.9591 ± 0.0017 h | 10.5 ± 0.44 h | 5.88 ± 0.34 h | 12.4 ± 0.35 h | 5.24 ± 0.54 h | 11.5 ± 0.38 h
MNAYELQALRHIFAMTIDECATWIAQTGDSESWRQWENGKCAIPDRVVEQLLAMRQQRKKHLHAIIEKINNRIGNNTMRFFPDLTAFQRVYPDGNFIDWKIYQSVAAELYAHDLERLC | 4.85 h |  |  |  |  | 2.05 h | 3.14 ± 0.49 h | 5.24 ± 0.46 h |  |  |  | 
MSHTIRDKQKLKARASKIQGQVVALKKMLDEPHECAAVLQQIAAIRGAVNGLMREVIKGHLTEHIVHQGDELKREEDLDVVLKVLDSYIK | 7.38 ± 0.4 h | 7.02 ± 0.26 h |  | 6.29 ± 0.15 h |  | > 4 h | 7.3 ± 0.65 h | 10.8 h | 5.53 ± 0.39 h | 11.2 h | 4.14 ± 1.8 h | 11.9 ± 0.86 h
MSSKVERERRKAQLLSQIQQQRLDLSASRREWLETTGAYDRRWNMLLSLRSWALVGSSVMAIWTIRHPNMLVRWARRGFGVWSAWRLVKTTLKQQQLRG | 5.54 ± 0.84 h |  | 6 ± 0.61 h | 4.6 ± 1.6 h | 5.78 ± 0.53 h | 2.56 ± 0.29 h | 4.85 ± 0.21 h | 8.71 h | 5.6 ± 1.8 h | 11.4 h | 4.85 h | 10.2 ± 0.32 h
MPLVIVAIGVILLLLLMIRFKMNGFIALVLVALAVGLMQGMPLDKVIGSIKAGVGGTLGSLALIMGFGAMLGKMLADCGGAQRIATTLIAKFGKKHIQWAVVLTGFTVGFALFYEVGFVLMLPLVFTIAASANIPLLYVGVPMAAALSVTHGFLPPHPGPTAIATIFNADMGKTLLYGTILAIPTVILAGPVYARVLKGIDKPIPEGLYSAKTFSEEEMPSFGVSVWTSLVPVVLMAMRAIAEMILPKGHAFLPVAEFLGDPVMATLIAVLIAMFTFGLNRGRSMDQINDTLVSSIKIIAMMLLIIGGGGAFKQVLVDSGVDKYIASMMHETNISPLLMAWSIAAVLRIALGSATVAAITAGGIAAPLIATTGVSPELMVIAVGSGSVIFSHVNDPGFWLFKEYFNLTIGETIKSWSMLETIISVCGLVGCLLLNMVI |  | 6.71 ± 1 h | 5.83 ± 0.38 h | 6.2 ± 0.55 h | 6.06 ± 0.3 h |  |  | 10 ± 0.67 h | 5.75 h | 13 h |  | 
MNIDTREITLEPADNARLLSLCGPFDDNIKQLERRLGIEINRRDNHFKLTGRPICVTAAADILRSLYVDTAPMRGQIQDIEPEQIHLAIKEARVLEQSAESVPEYGKAVNIKTKRGVIKPRTPNQAQYIANILDHDITFGVGPAGTGKTYLAVAAAVDALERQEIRRILLTRPAVEAGEKLGFLPGDLSQKVDPYLRPLYDALFEMLGFEKVEKLIERNVIEVAPLAYMRGRTLNDAFIILDESQNTTIEQMKMFLTRIGFNSKAVITGDVTQIDLPRNTKSGLRHAIEVLADVEEISFNFFHSEDVVRHPVVARIVNAYEAWEEAEQKRKAALAAERKREEQEQK [P0A9K3] | 5.2 ± 0.69 h | 4.25 ± 0.14 h | 2.95 ± 0.066 h | 4.1 ± 0.2 h | 3.167 ± 0.017 h | 2.77 ± 0.3 h | 4.809 ± 0.025 h | 7.67 ± 0.34 h | 3.15 ± 0.17 h | 4.373 ± 0.043 h | 4.37 ± 0.17 h | 7.78 ± 0.12 h
MIREAQRSELPAILELWLESTTWGHPFIKANYWRDCIPLVRDAYLANAQNWVWEEDGKLLGFVSIMEGRFLAAMFVAPKAVRRGIGKALMQYVQQRHPHLMLEVYQKNQPAINFYQAQGFHIVDCAWQDETQLPTWIMSWPVVQTL | 5.19 h |  | 2.72 h | 3.34 ± 0.79 h |  | > 4 h | 3.55 h | 4.76 h | 2.33 ± 0.12 h | 3.08 ± 0.13 h | 4.08 h | 6.74 ± 0.19 h
MQKEQLSALMDGETLDSELLNELAHNPEMQKTWESYHLIRDSMRGDTPEVLHFDISSRVMAAIEEEPVRQPATLIPEAQPAPHQWQKMPFWQKVRPWAAQLTQMGVAACVSLAVIVGVQHYNGQSETSQQPETPVFNTLPMMGKASPVSLGVPSEATANNGQQQQVQEQRRRINAMLQDYELQRRLHSEQLQFEQAQTQQAAVQVPGIQTLGTQSQ [P0AFX7] |  |  |  |  |  |  | 0.455 ± 0.09 h | 0.469 h | 0.895 ± 0.046 h | 0.953 ± 0.18 h | 0.801 h | 1.03 ± 0.45 h
MRTQWPSPAKLNLFLYITGQRADGYHTLQTLFQFLDYGDTISIELRDDGDIRLLTPVEGVEHEDNLIVRAARLLMKTAADSGRLPTGSGANISIDKRLPMGGGLGGGSSNAATVLVALNHLWQCGLSMDELAEMGLTLGADVPVFVRGHAAFAEGVGEILTPVDPPEKWYLVAHPGVSIPTPVIFKDPELPRNTPKRSIETLLKCEFSNDCEVIARKRFREVDAVLSWLLEYAPSRLTGTGACVFAEFDTESEARQVLEQAPEWLNGFVAKGANLSPLHRAML |  | 4.11 ± 0.64 h | 4.05 ± 0.64 h | 4.25 ± 0.41 h | 4.04 ± 0.42 h | 2.95 ± 0.33 h |  | 10.5 ± 0.63 h | 4.43 ± 0.23 h | 6.789 ± 0.062 h | 5.31 ± 0.33 h | 10.47 ± 0.049 h
